Here are results for one molecule from article PMC3674922, “Single-molecule photobleaching reveals increased MET receptor dimerization upon ligand binding in intact cells” (BMC Biophysics, 2013).

For this assay, the target named is T1, soluble MET ectodomain (MET928) (human, UniProt P08581 25-932).
T1 construct: MET receptor tyrosine kinase, human, soluble complete ectodomain (MET928)
The experiment in a line: fluorescence correlation spectroscopy (FCS); in solution; 1 nM InlB-ATTO647N, MET928 titrated from 0.01 nM to 1-2 uM; PBS with 0.05% Tween-20; at least 3 h at room temperature; objective at 20°C; diffusion time fitted to a 1:1 binding model. The settings on record: both partners purified.

T1 sequence (P08581 25-932): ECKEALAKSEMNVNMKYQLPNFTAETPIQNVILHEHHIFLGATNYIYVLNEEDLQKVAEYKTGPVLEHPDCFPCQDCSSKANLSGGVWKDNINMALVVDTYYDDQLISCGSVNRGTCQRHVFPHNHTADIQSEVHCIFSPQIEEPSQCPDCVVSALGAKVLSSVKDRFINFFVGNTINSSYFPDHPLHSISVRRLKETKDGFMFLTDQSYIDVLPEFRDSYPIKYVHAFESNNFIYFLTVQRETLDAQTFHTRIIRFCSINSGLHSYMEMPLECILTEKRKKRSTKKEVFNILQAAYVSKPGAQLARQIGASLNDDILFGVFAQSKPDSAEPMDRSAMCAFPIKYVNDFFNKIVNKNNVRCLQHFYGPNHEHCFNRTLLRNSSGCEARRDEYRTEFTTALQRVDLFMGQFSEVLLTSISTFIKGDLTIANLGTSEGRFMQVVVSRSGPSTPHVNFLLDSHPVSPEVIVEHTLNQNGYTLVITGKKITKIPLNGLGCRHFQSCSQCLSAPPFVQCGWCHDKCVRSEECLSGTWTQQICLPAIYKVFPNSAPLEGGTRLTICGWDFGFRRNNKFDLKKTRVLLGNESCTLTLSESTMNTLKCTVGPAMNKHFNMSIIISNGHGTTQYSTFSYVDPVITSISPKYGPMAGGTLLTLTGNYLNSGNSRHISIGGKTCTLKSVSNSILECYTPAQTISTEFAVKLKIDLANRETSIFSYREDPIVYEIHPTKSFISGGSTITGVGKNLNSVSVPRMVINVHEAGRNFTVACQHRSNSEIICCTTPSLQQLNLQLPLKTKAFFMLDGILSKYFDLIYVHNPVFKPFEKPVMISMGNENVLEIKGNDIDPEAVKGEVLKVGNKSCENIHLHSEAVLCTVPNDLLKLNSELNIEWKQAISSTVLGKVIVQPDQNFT

B1: InlB-ATTO647N (InlB321 with C242A and K280C, labelled with ATTO647N at C280) (domain or fragment)
chain: ETITVPTPIKQIFSDDAFAETIKDNLKKKSVTDAVTQNELNSIDQIIANNSDIKSVQGIQYLPNVTKLFLNGNKLTDIKPLANLKNLGWLFLDENKVKDLSSLKDLKKLKSLSLEHNGISDINGLVHLPQLESLYLGNNKITDITVLSRLTKLDTLSLEDNQISDIVPLAGLTKLQNLYLSKNHISDLRALAGLKNLDVLELFSQEALNKPINHQSNLVVPNTVKNTDGSLVTPEIISDDGDYECPNVKWHLPEFTNEVSFIFYQPVTIGKAKARFHGRVTQPLKE
modifications: ATTO647N attached to C280 by maleimide coupling (degree of labeling 0.5)
notes: internalin B (InlB) of Listeria monocytogenes, N-terminal internalin domain, amino acids 36-321 (InlB321); either way residue 280 is cysteine; also called dye-labeled InlB321; internalin domain of InlB
Broadly, the Kd is the constant that tells how readily two partners part at equilibrium. The molecule B1 registered a Kd of 5 ± 0.8 nM.
